Experimental findings from US20220233697A1 (ACCELERON PHARMA, published 2022) are described below.

The assay has as its target T1, activin A (UniProt P08476 311-426).
T1 construct: also called ActA
T1 sequence (looked up): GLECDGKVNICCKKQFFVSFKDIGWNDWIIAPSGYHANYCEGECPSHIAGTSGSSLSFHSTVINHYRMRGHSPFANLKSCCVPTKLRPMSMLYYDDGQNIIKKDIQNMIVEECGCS
The assay is described as follows: Biacore, ligand coupled, receptor flowed (table reproduced from WO2006/012627). For orientation: Surface plasmon resonance follows binding to a sensor surface in real time, without labels.

B1: Soluble ActRIIB-Fc K55A (Fc fusion, UniProt Q13705 19-119, looked up)
chain: SGRGEAETRECIYYNANWELERTNQSGLERCEGEQDARLHCYASWANSSGTIELVKKGCWLDDFNCYDRQECVATEENPQVYFCCCEGNFCNERFTHLPEA
notes: not shown: Fc domain, not specified
As to B1, the binding result is recorded as “binds”.
